In paper PMC9569322, “Determination of the boundary lipids of sticholysins using tryptophan quenching” (Scientific Reports, 2022):
Changes are numbered by the printed parent chain. In names and notes the source's numbering stands.

B1: Sticholysin I (StnI), wild type (natural protein, Stichodactyla helianthus, UniProt P81662 1-176, looked up)
chain: SELAGTIIDGASLTFEVLDKVLGELGKVSRKIAVGIDNESGGTWTALNAYFRSGTTDVILPEVVPNTKALLYSGRKSSGPVATGAVAAFAYYMSNGNTLGVMFSVPFDYNWYSNWWDVKIYPGKRRADQGMYEDMYYGNPYRGDNGWYQKNLGYGLRMKGIMTSAGEAKMQIKISR
notes: Sticholysin I (StnI), actinoporin of the sea anemone Stichodactyla helianthus; also called StnI WT; source: E. coli RB791, purified to homogeneity
B2: StnI-I7C/K68C^ox (oxidized double-Cys mutant of sticholysin I) (natural protein, Stichodactyla helianthus, UniProt P81662 1-176, looked up)
chain: B1 chain with I7C, K68C
modifications: disulfide bridge between C7 and C68 (oxidized form)
notes: Sticholysin I (StnI) of Stichodactyla helianthus with I7C and K68C, made by site-directed mutagenesis; the disulfide holds the N-terminal alpha-helix on the beta-sandwich; Used oxidized; also called StnI CC; source: E. coli RB791, purified to homogeneity
B3: Sticholysin II (StnII), wild type (natural protein, Stichodactyla helianthus, UniProt P07845 1-175, looked up)
chain: ALAGTIIAGASLTFQVLDKVLEELGKVSRKIAVGIDNESGGTWTALNAYFRSGTTDVILPEFVPNTKALLYSGRKDTGPVATGAVAAFAYYMSSGNTLGVMFSVPFDYNWYSNWWDVKIYSGKRRADQGMYEDLYYGNPYRGDNGWHEKNLGYGLRMKGIMTSAGEAKMQIKISR
notes: Sticholysin II (StnII), actinoporin of the sea anemone Stichodactyla helianthus; also called StnII WT; StnII-WT; source: E. coli RB791, purified to homogeneity
B4: StnII-I6C/K67C^ox (oxidized double-Cys mutant of sticholysin II) (natural protein, Stichodactyla helianthus, UniProt P07845 1-175, looked up)
chain: B3 chain with I6C, K67C
modifications: disulfide bridge between C6 and C67 (oxidized form)
notes: Sticholysin II (StnII) of Stichodactyla helianthus with I6C and K67C, made by site-directed mutagenesis; the disulfide prevents the deployment of the N-terminal alpha-helix; Used oxidized; also called StnII CC; source: E. coli RB791, purified to homogeneity

Molecular target: the molecule itself
Experiment: cross-linking

| Protein | binding result |
| --- | --- |
| B1 | binds |
| B2 | binds |
| B3 | binds |
| B4 | binds |
